Publication PMC13397619

B1: NLV3 TCR beta chain (CDR3β only) (parent)
chain: ASSPTGGSPSPLH

Variants of: B1
Assay: T-Switch: Jurkat TCRβ−/− cells expressing a CDR3 saturation-mutagenesis library, stained with two peptide-HLA-A*02:01 tetramers (original and novel peptide) plus anti-CD3, FACS-sorted into four gates, gDNA sequenced
Conditions: tetramers 1 µg/mL, 30 min on ice, SP, DP and SW gates expanded about 10 days between rounds ('two to three rounds of selection' in the Methods), unresolved parent, parent is a CDR3 fragment, scale: fold enrichment, numbering: sequential-on-construct, sequence starts at 1
[1] = with both tetramers (double-negative gate, binds neither): HLA-A*02:01 with … and with …, gate DN: OPPOSITE: higher = more of the variant in the gate that binds neither peptide = LESS binding (or no expression; inferred). Fold enrichment of the CDR3 variant in one FACS gate of a two-tetram
[2] = with both tetramers (double-positive gate): HLA-A*02:01 with … and with …, gate DP: higher = more of the variant in the gate that binds both peptides. Fold enrichment of the CDR3 variant in one FACS gate of a two-tetramer stain. SP/DP/SW gates were expanded and re-sorted bef

| Variant | enrichment [1] | enrichment [2] |
| --- | --- | --- |
| […] (CDR3 as printed); P4Q derived by comparing it with the table's wild-type CDR3 ASSPTGGSPSPLH | 1.2 | 0 |
| […] (CDR3 as printed); H13C derived by comparing it with the table's wild-type CDR3 ASSPTGGSPSPLH | 0.646 | 0 |
| […] (CDR3 as printed); L12G derived by comparing it with the table's wild-type CDR3 ASSPTGGSPSPLH | 0.618 | 0 |
| […] (CDR3 as printed); G7C derived by comparing it with the table's wild-type CDR3 ASSPTGGSPSPLH | 0.947 | 0 |
| […] (CDR3 as printed); A1Y derived by comparing it with the table's wild-type CDR3 ASSPTGGSPSPLH | 1.15 | 0 |
| […] (CDR3 as printed); G7R derived by comparing it with the table's wild-type CDR3 ASSPTGGSPSPLH | 1.17 | 0 |
| […] (CDR3 as printed); H13W derived by comparing it with the table's wild-type CDR3 ASSPTGGSPSPLH | 0.345 | 0 |
| […] (CDR3 as printed); P9F derived by comparing it with the table's wild-type CDR3 ASSPTGGSPSPLH | 0.851 | 0 |
| […] (CDR3 as printed); G6Y derived by comparing it with the table's wild-type CDR3 ASSPTGGSPSPLH | 0.661 | 0 |
| […] (CDR3 as printed); H13P derived by comparing it with the table's wild-type CDR3 ASSPTGGSPSPLH | 1 | 0 |
| […] (CDR3 as printed); L12E derived by comparing it with the table's wild-type CDR3 ASSPTGGSPSPLH | 1.1 | 0 |
| […] (CDR3 as printed); G7D derived by comparing it with the table's wild-type CDR3 ASSPTGGSPSPLH | 1.18 | 0 |
| […] (CDR3 as printed); G7Q derived by comparing it with the table's wild-type CDR3 ASSPTGGSPSPLH | 1.09 | 0 |
| […] (CDR3 as printed); G6F derived by comparing it with the table's wild-type CDR3 ASSPTGGSPSPLH | 1.27 | 0 |
| […] (CDR3 as printed); G6E derived by comparing it with the table's wild-type CDR3 ASSPTGGSPSPLH | 1.12 | 0 |
| […] (CDR3 as printed); P4A derived by comparing it with the table's wild-type CDR3 ASSPTGGSPSPLH | 0.738 | 0 |
| […] (CDR3 as printed); P4L derived by comparing it with the table's wild-type CDR3 ASSPTGGSPSPLH | 0.459 | 0 |
| […] (CDR3 as printed); G6H derived by comparing it with the table's wild-type CDR3 ASSPTGGSPSPLH | 1.05 | 0 |
| […] (CDR3 as printed); G7L derived by comparing it with the table's wild-type CDR3 ASSPTGGSPSPLH | 1.32 | 0 |
| […] (CDR3 as printed); P4Y derived by comparing it with the table's wild-type CDR3 ASSPTGGSPSPLH | 0.624 | 0 |

| Variant | enrichment [1] | enrichment [2] |
| --- | --- | --- |
| […] (CDR3 as printed); G6M derived by comparing it with the table's wild-type CDR3 ASSPTGGSPSPLH | 0.906 | 0 |
| […] (CDR3 as printed); A1R derived by comparing it with the table's wild-type CDR3 ASSPTGGSPSPLH | 0.65 | 0 |
| […] (CDR3 as printed); A1F derived by comparing it with the table's wild-type CDR3 ASSPTGGSPSPLH | 0.897 | 0 |
| […] (CDR3 as printed); H13F derived by comparing it with the table's wild-type CDR3 ASSPTGGSPSPLH | 0.541 | 0 |
| […] (CDR3 as printed); L12S derived by comparing it with the table's wild-type CDR3 ASSPTGGSPSPLH | 0.878 | 0 |
| […] (CDR3 as printed); H13T derived by comparing it with the table's wild-type CDR3 ASSPTGGSPSPLH | 0.524 | 0 |
| […] (CDR3 as printed); G7K derived by comparing it with the table's wild-type CDR3 ASSPTGGSPSPLH | 1.36 | 0 |
| […] (CDR3 as printed); L12N derived by comparing it with the table's wild-type CDR3 ASSPTGGSPSPLH | 0.99 | 0 |
| […] (CDR3 as printed); L12K derived by comparing it with the table's wild-type CDR3 ASSPTGGSPSPLH | 0.756 | 0 |
| […] (CDR3 as printed); H13M derived by comparing it with the table's wild-type CDR3 ASSPTGGSPSPLH | 0.598 | 0 |
| […] (CDR3 as printed); G6L derived by comparing it with the table's wild-type CDR3 ASSPTGGSPSPLH | 0.967 | 0 |
| […] (CDR3 as printed); P9C derived by comparing it with the table's wild-type CDR3 ASSPTGGSPSPLH | 0.869 | 0 |
| […] (CDR3 as printed); A1H derived by comparing it with the table's wild-type CDR3 ASSPTGGSPSPLH | 0.916 | 0 |
| […] (CDR3 as printed); P4K derived by comparing it with the table's wild-type CDR3 ASSPTGGSPSPLH | 0.891 | 0 |
| […] (CDR3 as printed); A1L derived by comparing it with the table's wild-type CDR3 ASSPTGGSPSPLH | 0.861 | 0 |
| […] (CDR3 as printed); H13K derived by comparing it with the table's wild-type CDR3 ASSPTGGSPSPLH | 0.708 | 0 |
| […] (CDR3 as printed); A1W derived by comparing it with the table's wild-type CDR3 ASSPTGGSPSPLH | 0.805 | 0 |
| […] (CDR3 as printed); G7Y derived by comparing it with the table's wild-type CDR3 ASSPTGGSPSPLH | 0.917 | 0 |
| […] (CDR3 as printed); P4S derived by comparing it with the table's wild-type CDR3 ASSPTGGSPSPLH | 0.973 | 0 |
| […] (CDR3 as printed); P4M derived by comparing it with the table's wild-type CDR3 ASSPTGGSPSPLH | 0.718 | 0 |

| Variant | enrichment [1] | enrichment [2] |
| --- | --- | --- |
| […] (CDR3 as printed); A1K derived by comparing it with the table's wild-type CDR3 ASSPTGGSPSPLH | 0.994 | 0 |
| […] (CDR3 as printed); G7H derived by comparing it with the table's wild-type CDR3 ASSPTGGSPSPLH | 0.687 | 0 |
| […] (CDR3 as printed); H13Q derived by comparing it with the table's wild-type CDR3 ASSPTGGSPSPLH | 0.592 | 0 |
| […] (CDR3 as printed); L12A derived by comparing it with the table's wild-type CDR3 ASSPTGGSPSPLH | 1.68 | 0 |
| […] (CDR3 as printed); G6S derived by comparing it with the table's wild-type CDR3 ASSPTGGSPSPLH | 0.376 | 0 |
| […] (CDR3 as printed); A1D derived by comparing it with the table's wild-type CDR3 ASSPTGGSPSPLH | 0.881 | 0 |
| […] (CDR3 as printed); G6Q derived by comparing it with the table's wild-type CDR3 ASSPTGGSPSPLH | 1.2 | 0 |
| […] (CDR3 as printed); G7I derived by comparing it with the table's wild-type CDR3 ASSPTGGSPSPLH | 1.05 | 0 |
| […] (CDR3 as printed); L12I derived by comparing it with the table's wild-type CDR3 ASSPTGGSPSPLH | 0.883 | 0 |
| […] (CDR3 as printed); L12H derived by comparing it with the table's wild-type CDR3 ASSPTGGSPSPLH | 0.844 | 0 |
| […] (CDR3 as printed); G7W derived by comparing it with the table's wild-type CDR3 ASSPTGGSPSPLH | 1.22 | 0 |
| […] (CDR3 as printed); G7M derived by comparing it with the table's wild-type CDR3 ASSPTGGSPSPLH | 0.978 | 0 |
| […] (CDR3 as printed); H13A derived by comparing it with the table's wild-type CDR3 ASSPTGGSPSPLH | 0.498 | 0 |
| […] (CDR3 as printed); H13L derived by comparing it with the table's wild-type CDR3 ASSPTGGSPSPLH | 0.846 | 0 |
| […] (CDR3 as printed); P4I derived by comparing it with the table's wild-type CDR3 ASSPTGGSPSPLH | 0.965 | 0 |
| […] (CDR3 as printed); L12M derived by comparing it with the table's wild-type CDR3 ASSPTGGSPSPLH | 0.583 | 0 |
| […] (CDR3 as printed); G6V derived by comparing it with the table's wild-type CDR3 ASSPTGGSPSPLH | 1.33 | 0 |
| […] (CDR3 as printed); H13Y derived by comparing it with the table's wild-type CDR3 ASSPTGGSPSPLH | 0.87 | 0 |
